The target of test [1] is H1 (A/Solomonislands/3/2006) (Influenza A virus, UniProt A7UPX0). The settings on record: read-out: affinity constant via yeast surface display.
The target in test [2] is H1 (A/NewCaledonia/20/1999) (Influenza A virus, UniProt Q6WG00). The settings on record: read-out: affinity constant via yeast surface display.
The next test concerns the target H3 (A/Hong Kong/1/1968) (Influenza A virus, UniProt Q91MA7). The settings on record: read-out: affinity constant via yeast surface display.
A further test deals with H2 (A/Adachi/2/1957) (Influenza A virus, UniProt B5UA22). The settings on record: read-out: affinity constant via yeast surface display.
Test [3] addresses H3N2 A/Victoria/361/2011. Format: binding, Influenza A.
Test [4] has as its target H1N1 A/New Caledonia/20/1999 (Influenza A virus, UniProt Q6WG00). The settings on record: read-out: Kd (binding constant).
The subject of the next test is H1, H2 and H3. The test is classed as binding, Influenza A.
Test [5] addresses HA of H3N2 A/Hong Kong/1/1968 (Influenza A virus, UniProt Q91MA7). The settings on record: read-out: Kd (binding constant).
Another test deals with H2N2 A/Adachi/2/1957 (Influenza A virus, UniProt B5UA22). The settings on record: read-out: Kd (binding constant).
The test system of test [6] is H3N2 A/Victoria/361/2011. The test is classed as binding, Influenza A. The source holds these as a separate data set.

Chain of H1 (A/Solomonislands/3/2006) (A7UPX0 1-565): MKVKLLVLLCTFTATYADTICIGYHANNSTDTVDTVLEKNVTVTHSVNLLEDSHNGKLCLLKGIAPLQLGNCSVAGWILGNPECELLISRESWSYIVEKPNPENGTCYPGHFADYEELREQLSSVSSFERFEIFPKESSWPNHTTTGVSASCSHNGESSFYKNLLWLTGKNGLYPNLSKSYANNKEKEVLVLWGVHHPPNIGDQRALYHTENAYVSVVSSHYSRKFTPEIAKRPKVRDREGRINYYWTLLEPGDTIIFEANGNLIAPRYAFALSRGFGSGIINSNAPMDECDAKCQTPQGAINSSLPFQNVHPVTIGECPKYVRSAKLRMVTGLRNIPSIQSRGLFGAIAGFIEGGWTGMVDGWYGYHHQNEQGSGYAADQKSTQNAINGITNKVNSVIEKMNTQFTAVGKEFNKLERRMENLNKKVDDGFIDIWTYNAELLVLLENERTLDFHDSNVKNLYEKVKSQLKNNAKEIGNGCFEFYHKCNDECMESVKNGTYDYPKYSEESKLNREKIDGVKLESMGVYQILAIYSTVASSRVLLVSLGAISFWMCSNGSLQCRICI

As for “GIVNVPN(P/C)NTTKYQQLARRAIAIYNNNQNAHLEFVENLN(V/C)KEQTGLGIMYYITLAATDDAGKKKIYKAKIAVVESAGWVAVSEFKLV [52Sing2]”, the Kd in test [1] turned out to be 17.2 nM; in test [2], 44.9 nM.

For the substance “GIVNVPN(P/C)NTTKYQQLARSAIAIYNNHQNAHLEFVENLN(V/C)KEQVSYGAMYYITLAATDDAGKKKIYKAKVGVVESAGWVGVEEFKLV [52alt1-3]”, the Kd is 3 nM in the test with H3 (A/Hong Kong/1/1968) and 8.5 nM with H2 (A/Adachi/2/1957).

Turning to “GIVNVPN(P/C)NTTKYQQLARSAIAIYNYHQNAHLEFVENLN(V/C)KEQLGEGDMYYITLAATDDAGKKKIYKAKIGVVESAGWTGVEEFKLV [52NC-2]”, the Kd in test [1] came to 4.4 nM; with H3 (A/Hong Kong/1/1968), 3.9 nM; with H2 (A/Adachi/2/1957), 9.6 nM; in test [4] it was 534 nM; in test [2], 27.2 nM; in test [5] it was 180 nM. Besides, in the test with H2N2 A/Adachi/2/1957, the Kd is 289 nM. Also, at H3N2 A/Victoria/361/2011 [3], the “Kd (binding constant)” value is given as “could not be detected”. The “binding to HA subtypes” value with H1, H2 and H3 was “binding to all three subtypes H1, H2 and H3”. The “binding by yeast display titrations” value in the test with H3N2 A/Victoria/361/2011 [6] was “could not be detected”.

In the case of “GIVNVPN(P/C)NTTKYQQLARSAIAIYNYHQNAHLEFVENLN(V/C)KEQVGGMNMYYITLAATDDAGKKKIYKAKVGVVESAGWKGVEEFKLV [52solo1]”, the Kd was 1.8 nM in test [1], 35.7 nM in the test with H3 (A/Hong Kong/1/1968), greater than 350 nM in the test with H2 (A/Adachi/2/1957) and 20.7 nM in [2].

As for “GIVNVPN(P/C)NTTKYQQLARSAIAVYNYHQNAHLEFVENLN(V/C)KEQIAGKTMYYITLAATDDAGKKKIYKAKVGVVESAGWEGVEEFKLV [52solo2]”, the Kd was found to be 1.7 nM in test [1] and 9.1 nM in test [2].

(Values after US20170198014A1, “POLYPEPTIDES AND THEIR USE FOR TREATING INFLUENZA” ([…] ITS CENTER FOR COMMERCIALIZATION, priority 2014, published 2017).)
